Drawing on PMC10899256, this text covers ratio to parent for 2 substances.

This experiment has as its target TBC1D23 co-precipitated with GFP-tagged LKB1 (Fig. 8a) (UniProt Q9NUY8). The experiment in a line: co-immunoprecipitation (GFP beads) from HEK293T cells, densitometry. The conditions noted are these: parent: est. 1.0; read off a plot.

Sequence of TBC1D23 co-precipitated with GFP-tagged LKB1 (Fig. 8a) (Q9NUY8 whole entry): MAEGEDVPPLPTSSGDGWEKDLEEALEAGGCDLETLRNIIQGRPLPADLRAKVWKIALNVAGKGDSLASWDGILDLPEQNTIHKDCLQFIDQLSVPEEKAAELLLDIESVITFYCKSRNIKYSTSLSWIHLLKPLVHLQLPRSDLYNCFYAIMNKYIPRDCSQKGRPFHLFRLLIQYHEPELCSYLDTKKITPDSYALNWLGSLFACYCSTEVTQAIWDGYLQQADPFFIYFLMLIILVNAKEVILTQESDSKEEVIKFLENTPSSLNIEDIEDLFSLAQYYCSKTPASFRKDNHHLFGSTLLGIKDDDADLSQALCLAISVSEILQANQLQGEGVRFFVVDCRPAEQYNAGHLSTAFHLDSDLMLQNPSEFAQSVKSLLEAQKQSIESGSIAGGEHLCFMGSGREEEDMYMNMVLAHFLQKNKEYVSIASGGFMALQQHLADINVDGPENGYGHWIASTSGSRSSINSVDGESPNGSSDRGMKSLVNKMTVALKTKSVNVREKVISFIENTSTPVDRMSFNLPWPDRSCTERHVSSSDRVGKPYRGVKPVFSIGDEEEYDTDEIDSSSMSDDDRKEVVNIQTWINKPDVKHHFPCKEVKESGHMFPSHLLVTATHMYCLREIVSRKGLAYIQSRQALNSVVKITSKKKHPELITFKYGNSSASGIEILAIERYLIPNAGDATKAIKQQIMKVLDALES

As to GFP-LKB1 CRD F354A, the ratio to parent came out at 0.75.

With GFP-LKB1 CRD F354L, the ratio to parent was 0.82.
